The supplement of paper PMC9112550, “Optimization of the antimicrobial peptide Bac7 by deep mutational scanning” (BMC Biology, 2022)

System: Escherichia coli TOP10
Test: shrunken log2 fold change of peptide-encoding DNA abundance (4.5 h post-induction vs induction); higher = less antimicrobial activity (less host growth inhibition)
Conditions: time post-induction: 4.5 h; library: site-saturation at positions 5, 18, 19, 20
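Also: peptides expressed intracellularly from a pBAD plasmid library in pooled LB shake-flask culture, induced with 0.3% L-arabinose, DNA abundance read by NGS, three biological replicates, DESeq2 with apeglm shrinkage.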

| Sequence | shrunken log2 fold change |
| --- | --- |
| RRIRLRPPRLPRPRPRPSHVPRP | -0.0453 |
| RRIRARPPRLPRPRPRPPMPPRP | 0.405 |
| RRIRFRPPRLPRPRPRPNCMPRP | -0.143 |
| RRIRIRPPRLPRPRPRPSYGPRP | -0.53 |
| RRIRWRPPRLPRPRPRPYHMPRP | -0.591 |
| RRIRPRPPRLPRPRPRPSISPRP | -0.37 |
| RRIRGRPPRLPRPRPRPHLWPRP | 0.942 |
| RRIRCRPPRLPRPRPRPPMVPRP | -0.147 |
| RRIRARPPRLPRPRPRPNDSPRP | -0.225 |
| RRIRGRPPRLPRPRPRPPETPRP | 1.24 |
| RRIRLRPPRLPRPRPRPCNDPRP | -0.101 |
| RRIRERPPRLPRPRPRPLLIPRP | -0.437 |
| RRIRNRPPRLPRPRPRPRARPRP | 0.856 |
| RRIRNRPPRLPRPRPRPIYHPRP | -0.526 |
| RRIRIRPPRLPRPRPRPCYYPRP | -0.272 |
| RRIRLRPPRLPRPRPRPFGAPRP | -0.0596 |
| RRIRPRPPRLPRPRPRPRANPRP | 0.286 |
| RRIRLRPPRLPRPRPRPQSCPRP | 0.123 |
| RRIRDRPPRLPRPRPRPYLSPRP | -0.102 |
| RRIRCRPPRLPRPRPRPIAGPRP | 0.195 |
| RRIRFRPPRLPRPRPRPLASPRP | -0.0784 |
| RRIRYRPPRLPRPRPRPLFKPRP | -0.646 |
| RRIRVRPPRLPRPRPRPPECPRP | -0.186 |
| RRIRVRPPRLPRPRPRPPVRPRP | 0.267 |
| RRIRGRPPRLPRPRPRPGLNPRP | 4.08 |

| Sequence | shrunken log2 fold change |
| --- | --- |
| RRIRVRPPRLPRPRPRPFAYPRP | -0.528 |
| RRIRCRPPRLPRPRPRPSTPPRP | -0.382 |
| RRIRARPPRLPRPRPRPMPHPRP | 0.145 |
| RRIRKRPPRLPRPRPRPQSTPRP | -0.0185 |
| RRIRQRPPRLPRPRPRPFHEPRP | -0.0703 |
| RRIRSRPPRLPRPRPRPKVAPRP | 0.509 |
| RRIRTRPPRLPRPRPRPRESPRP | 0.207 |
| RRIRMRPPRLPRPRPRPYLHPRP | -0.437 |
| RRIRSRPPRLPRPRPRPHLPPRP | -0.27 |
| RRIRYRPPRLPRPRPRPLSPPRP | -0.352 |
| RRIRARPPRLPRPRPRPSSCPRP | -0.0288 |
| RRIRARPPRLPRPRPRPAVIPRP | -0.178 |
| RRIRDRPPRLPRPRPRPRNTPRP | -0.205 |
| RRIRNRPPRLPRPRPRPTVLPRP | -0.091 |
| RRIRKRPPRLPRPRPRPRIVPRP | 0.161 |
| RRIRWRPPRLPRPRPRPDKWPRP | -0.161 |
| RRIRVRPPRLPRPRPRPDTEPRP | 0.0532 |
| RRIRNRPPRLPRPRPRPPWYPRP | -0.224 |
| RRIRHRPPRLPRPRPRPNDPPRP | -0.246 |
| RRIRNRPPRLPRPRPRPADPPRP | -0.0809 |
| RRIRDRPPRLPRPRPRPGIEPRP | 0.103 |
| RRIRFRPPRLPRPRPRPPQTPRP | 0.473 |
| RRIRYRPPRLPRPRPRPCTIPRP | -0.118 |
| RRIRNRPPRLPRPRPRPWFFPRP | -0.0137 |
| RRIRARPPRLPRPRPRPTRFPRP | 0.737 |

| Sequence | shrunken log2 fold change |
| --- | --- |
| RRIRARPPRLPRPRPRPNITPRP | -0.0796 |
| RRIRGRPPRLPRPRPRPMPYPRP | 0.0877 |
| RRIRFRPPRLPRPRPRPDNWPRP | -0.25 |
| RRIRIRPPRLPRPRPRPACHPRP | -0.12 |
| RRIRGRPPRLPRPRPRPAIFPRP | 0.583 |
| RRIRYRPPRLPRPRPRPKKGPRP | -0.444 |
| RRIRTRPPRLPRPRPRPGVCPRP | 0.442 |
| RRIRGRPPRLPRPRPRPNWKPRP | 0.332 |
| RRIRERPPRLPRPRPRPNHDPRP | -0.551 |
| RRIRMRPPRLPRPRPRPFTRPRP | -0.0636 |
| RRIRSRPPRLPRPRPRPTDHPRP | -0.339 |
| RRIRPRPPRLPRPRPRPQRKPRP | 0.113 |
| RRIRMRPPRLPRPRPRPVPPPRP | 0.901 |
| RRIRGRPPRLPRPRPRPCWKPRP | 0.175 |
| RRIRFRPPRLPRPRPRPNHMPRP | -0.567 |
| RRIRDRPPRLPRPRPRPQYRPRP | -0.0135 |
| RRIRCRPPRLPRPRPRPMWDPRP | -0.317 |
| RRIRIRPPRLPRPRPRPSKEPRP | -0.202 |
| RRIRFRPPRLPRPRPRPIHSPRP | -0.895 |
| RRIRTRPPRLPRPRPRPCATPRP | -0.0683 |
| RRIRNRPPRLPRPRPRPMVDPRP | -0.131 |
| RRIRCRPPRLPRPRPRPNEFPRP | 0.159 |
| RRIRDRPPRLPRPRPRPTCEPRP | 0.705 |
| RRIRFRPPRLPRPRPRPVVFPRP | -0.119 |
| RRIRARPPRLPRPRPRPLTSPRP | 0.209 |

| Sequence | shrunken log2 fold change |
| --- | --- |
| RRIRCRPPRLPRPRPRPLDAPRP | 0.123 |
| RRIRYRPPRLPRPRPRPVQVPRP | 0.0039 |
| RRIRARPPRLPRPRPRPDNIPRP | -0.256 |
| RRIRLRPPRLPRPRPRPELVPRP | 0.113 |
| RRIRTRPPRLPRPRPRPDPRPRP | 0.0663 |
| RRIRWRPPRLPRPRPRPKGTPRP | -0.0654 |
| RRIRTRPPRLPRPRPRPCGMPRP | -0.0074 |
| RRIRYRPPRLPRPRPRPKYYPRP | -1.43 |
| RRIRSRPPRLPRPRPRPSKCPRP | -0.0382 |
| RRIRGRPPRLPRPRPRPVEPPRP | 0.79 |
| RRIRPRPPRLPRPRPRPGMIPRP | 0.0107 |
| RRIRVRPPRLPRPRPRPCWVPRP | 0.0559 |
| RRIRCRPPRLPRPRPRPSNIPRP | -0.319 |
| RRIRERPPRLPRPRPRPVCFPRP | -0.173 |
| RRIRFRPPRLPRPRPRPYCAPRP | -0.517 |
| RRIRWRPPRLPRPRPRPILIPRP | -0.037 |
| RRIRPRPPRLPRPRPRPQQAPRP | 0.106 |
| RRIRARPPRLPRPRPRPDEHPRP | 0.54 |
| RRIRIRPPRLPRPRPRPPDYPRP | -0.0646 |
| RRIRSRPPRLPRPRPRPLYYPRP | -0.547 |
| RRIRYRPPRLPRPRPRPAMGPRP | -0.031 |
| RRIRWRPPRLPRPRPRPKNAPRP | 0.202 |
| RRIRRRPPRLPRPRPRPVAIPRP | 0.687 |
| RRIRTRPPRLPRPRPRPSEIPRP | -0.242 |
| RRIRNRPPRLPRPRPRPMTCPRP | -0.0075 |

| Sequence | shrunken log2 fold change |
| --- | --- |
| RRIRLRPPRLPRPRPRPFRPPRP | 0.0752 |
| RRIRQRPPRLPRPRPRPMPQPRP | 0.00445 |
| RRIRQRPPRLPRPRPRPYWCPRP | -0.164 |
| RRIRLRPPRLPRPRPRPWGQPRP | -0.0472 |
| RRIRWRPPRLPRPRPRPVQLPRP | 0.034 |
| RRIRWRPPRLPRPRPRPMTSPRP | 0.0704 |
| RRIRTRPPRLPRPRPRPSHNPRP | -0.681 |
| RRIRRRPPRLPRPRPRPMYGPRP | -0.0152 |
| RRIRFRPPRLPRPRPRPWMNPRP | -0.708 |
| RRIRCRPPRLPRPRPRPCQTPRP | -0.7 |
| RRIRTRPPRLPRPRPRPNCPPRP | -0.0894 |
| RRIRIRPPRLPRPRPRPDISPRP | -0.0405 |
| RRIRARPPRLPRPRPRPPDQPRP | 1.16 |
| RRIRERPPRLPRPRPRPDWRPRP | -0.0634 |
| RRIRQRPPRLPRPRPRPEDKPRP | 0.0591 |
| RRIRSRPPRLPRPRPRPGGNPRP | 0.163 |
| RRIRIRPPRLPRPRPRPIFLPRP | -0.416 |
| RRIRMRPPRLPRPRPRPIYMPRP | -0.0618 |
| RRIRGRPPRLPRPRPRPWGEPRP | 0.285 |
| RRIRKRPPRLPRPRPRPGWIPRP | 1.07 |
| RRIRMRPPRLPRPRPRPELNPRP | 0.0722 |
| RRIRQRPPRLPRPRPRPANFPRP | 0.0982 |
| RRIRQRPPRLPRPRPRPGRIPRP | -0.123 |
| RRIRDRPPRLPRPRPRPATYPRP | -0.141 |
| RRIRERPPRLPRPRPRPFSVPRP | -0.213 |

| Sequence | shrunken log2 fold change |
| --- | --- |
| RRIRWRPPRLPRPRPRPIGCPRP | 0.268 |
| RRIRHRPPRLPRPRPRPIFKPRP | -0.195 |
| RRIRVRPPRLPRPRPRPDFGPRP | -0.0183 |
| RRIRTRPPRLPRPRPRPATYPRP | -0.169 |
| RRIRLRPPRLPRPRPRPGMCPRP | -0.0891 |
| RRIRKRPPRLPRPRPRPVYPPRP | 0.293 |
| RRIRRRPPRLPRPRPRPYKAPRP | -0.108 |
| RRIRSRPPRLPRPRPRPRDWPRP | 0.4 |
| RRIRWRPPRLPRPRPRPYHLPRP | -0.146 |
| RRIRWRPPRLPRPRPRPKKTPRP | 0.0382 |
| RRIRRRPPRLPRPRPRPMKFPRP | 0.212 |
| RRIRSRPPRLPRPRPRPWVLPRP | 2.29 |
| RRIRFRPPRLPRPRPRPGCWPRP | 0.524 |
| RRIRARPPRLPRPRPRPLWVPRP | 0.959 |
| RRIRARPPRLPRPRPRPPIIPRP | -0.308 |
| RRIRMRPPRLPRPRPRPMHIPRP | 0.0159 |
| RRIRVRPPRLPRPRPRPFANPRP | -0.0887 |
| RRIRCRPPRLPRPRPRPFNIPRP | -0.436 |
| RRIRFRPPRLPRPRPRPMKWPRP | -0.0607 |
| RRIRERPPRLPRPRPRPIDGPRP | 0.0442 |
| RRIRGRPPRLPRPRPRPKWYPRP | 0.806 |
| RRIRFRPPRLPRPRPRPICPPRP | -0.208 |
| RRIRYRPPRLPRPRPRPNPHPRP | -0.639 |
| RRIRGRPPRLPRPRPRPPQTPRP | 1.31 |
| RRIRPRPPRLPRPRPRPLAGPRP | 0.3 |
